Assay results reported in the Human Domainome abundance scans (Beltran et al. 2025).
± gives the uncertainty stated by the source.

B1: Homeobox protein cut-like 1, residues 548 to 629; numbered along this chain, P39880 (parent)
chain: GEEMDTAEIARQVKEQLIKHNIGQRIFGHYVLGLSQGSVSEILARPKPWNKLTVRGKEPFHKMKQFLSDEQNILALRSIQGR

Variants of: B1
Experiment: abundance fitness (aPCA) (normalised: wild type 0, dead -1); higher = more abundant; growth selection in yeast, the domain comes from the species named
Conditions: Homo sapiens

Variant | abundance fitness
GEEMDTAEIARQVKEQLIKHNIGQRIFGHYVLGLSQGSVSEILARPKPWNKLTVRGKEPFHKMKQFHSDEQNILALRSIQGR | -1.21 ± 0.32
GEEMDTAEIARQVKEQLIKHNIGQRIFGHYVLGLSQGSVSEILARPKPWNKLTVRGKEPFHNMKQFLSDEQNILALRSIQGR | -0.532 ± 0.082
GEEMDTAEIARQVKEQLIKHNIGQRIFGHYVLGLSQGSVSEILARPKPWNKLTVRGKEPFHKMDQFLSDEQNILALRSIQGR | -0.489 ± 0.085
GEEMDTAEIARQVKEQLIKHNIGQNIFGHYVLGLSQGSVSEILARPKPWNKLTVRGKEPFHKMKQFLSDEQNILALRSIQGR | 0.017 ± 0.064
GEEMDTAEEARQVKEQLIKHNIGQRIFGHYVLGLSQGSVSEILARPKPWNKLTVRGKEPFHKMKQFLSDEQNILALRSIQGR | -0.517 ± 0.038
GEEMDTAEDARQVKEQLIKHNIGQRIFGHYVLGLSQGSVSEILARPKPWNKLTVRGKEPFHKMKQFLSDEQNILALRSIQGR | -0.428 ± 0.063
GEEMDTAEIARQVKEQLIHHNIGQRIFGHYVLGLSQGSVSEILARPKPWNKLTVRGKEPFHKMKQFLSDEQNILALRSIQGR | 0.029 ± 0.11
GEEMDTAEIARQVKEQLINHNIGQRIFGHYVLGLSQGSVSEILARPKPWNKLTVRGKEPFHKMKQFLSDEQNILALRSIQGR | -0.216 ± 0.07
GEEMDTAEIARQVKEQLIEHNIGQRIFGHYVLGLSQGSVSEILARPKPWNKLTVRGKEPFHKMKQFLSDEQNILALRSIQGR | -0.26 ± 0.03
GEEMDTAEIARQVKEQLIKHNIGQRIFGHYVLGLSQGSVSEILARPKPWTKLTVRGKEPFHKMKQFLSDEQNILALRSIQGR | -0.16 ± 0.067
GEEMDTAEIARQVKEQLIKHNIGQRIFGHYVLGLSQGSVSEILARPKPWNYLTVRGKEPFHKMKQFLSDEQNILALRSIQGR | -0.195 ± 0.073
GEEMDTAEIARQVKEQLIKHNIGQRIFGHYVLGLSQGSVSEILARPKPWNILTVRGKEPFHKMKQFLSDEQNILALRSIQGR | -0.008 ± 0.12
GEEMDTAEIARQVKEQLIKHNIGQRIFGHYVLGLSQGSVSEILARPKMWNKLTVRGKEPFHKMKQFLSDEQNILALRSIQGR | -0.27 ± 0.043
GEEMDTAEIARQVKEQLIKHNIGQRIFGHYVLGLSQGSVSEILARPKIWNKLTVRGKEPFHKMKQFLSDEQNILALRSIQGR | -0.438 ± 0.1
GEEMDTAEIARQVKEQLIKHNIGQRIFGHYVLGLSQGSVSEILARPKPWNKLTVRGKEPFHKMKQFLSDEQNILALASIQGR | 0.049 ± 0.03
GEEMDTAEIARQVKEQLIKHNIGQRIFGHYVLGLSQGSVSEILARPKPWNKLTVRGKEPFHKMKQFLSDEQNILALESIQGR | -0.005 ± 0.035
GEEMDTAEIARQVKEQLIKHNIGQRIFGHYVLGLSQGSVSEILARLKPWNKLTVRGKEPFHKMKQFLSDEQNILALRSIQGR | -0.356 ± 0.037
GEEMDTAEIARQVKEQLIKHNIGQRIFGHYVLGLSQGSVSEILARMKPWNKLTVRGKEPFHKMKQFLSDEQNILALRSIQGR | -0.459 ± 0.053
GEEMDTAEIARQVKEQLIKHNIGQRGFGHYVLGLSQGSVSEILARPKPWNKLTVRGKEPFHKMKQFLSDEQNILALRSIQGR | -0.547 ± 0.026
GEEMDTAEIARQVKEQLIKHNIGQRDFGHYVLGLSQGSVSEILARPKPWNKLTVRGKEPFHKMKQFLSDEQNILALRSIQGR | 0.023 ± 0.045
GEEMDTAEIARQIKEQLIKHNIGQRIFGHYVLGLSQGSVSEILARPKPWNKLTVRGKEPFHKMKQFLSDEQNILALRSIQGR | -0.102 ± 0.042
GEEMDTAEIARQFKEQLIKHNIGQRIFGHYVLGLSQGSVSEILARPKPWNKLTVRGKEPFHKMKQFLSDEQNILALRSIQGR | -0.911 ± 0.097
GHEMDTAEIARQVKEQLIKHNIGQRIFGHYVLGLSQGSVSEILARPKPWNKLTVRGKEPFHKMKQFLSDEQNILALRSIQGR | -0.256 ± 0.12

Variant | abundance fitness
GEEMDTAEIARQVKEQLIKHNIGQRIFGHYVLGLSQGSVSEILARPKPWNKLTVRGKEPEHKMKQFLSDEQNILALRSIQGR | -0.799 ± 0.055
GEEMDTAEIARQVKEQLIKHNIGQRIFGHYVLGLSQGSVSEILARPKPWNKLTVRWKEPFHKMKQFLSDEQNILALRSIQGR | -0.265 ± 0.031
GEEMDTAEIARQVKEQLIKHNIGQRIFGHYVLGLSQGSVSEILARPKPWNKLTVRGKEPFHKMKQGLSDEQNILALRSIQGR | -0.934 ± 0.041
GEEMDTAEIARQVKEQLIKHNIGQRIFGHYVLGLSQGSVSEILARPKPWNKLTVRGKEPFHKMKQFLSDEINILALRSIQGR | -0.212 ± 0.064
GEEMDTAEIARQVKEQLIKHNIGQRIFGHYVLGLSQGSVSEILARPKPWNKLTERGKEPFHKMKQFLSDEQNILALRSIQGR | 0.136 ± 0.06
GEEMDTAEIARQVKEQLIKHNIGQRIFGHYVLGLSQGSVSEILARPKPWNKLTVRGKEPFHKMKQFLRDEQNILALRSIQGR | -0.157 ± 0.027
GEEMDTAEIARQVKEQLIKHNIGQRIFGHYVLGLSQGSVSEILARPKPWNKLTVRGKEPFHKMKQFLLDEQNILALRSIQGR | -0.088 ± 0.031
GEEMDTAEIARQVKEQLIKHNIGQRIFGHYVLGKSQGSVSEILARPKPWNKLTVRGKEPFHKMKQFLSDEQNILALRSIQGR | -0.346 ± 0.04
GEEMDTAEIARQVKEQLIKHNIGQRIFGHYVLGLSQGSVSEILARPKPWNKLTVRGKEPFHKMKQFLSDEQNILALRSIQSR | -0.028 ± 0.038
GEEMTTAEIARQVKEQLIKHNIGQRIFGHYVLGLSQGSVSEILARPKPWNKLTVRGKEPFHKMKQFLSDEQNILALRSIQGR | -0.006 ± 0.041
GEEMETAEIARQVKEQLIKHNIGQRIFGHYVLGLSQGSVSEILARPKPWNKLTVRGKEPFHKMKQFLSDEQNILALRSIQGR | -0.163 ± 0.03
GEEMDTAEIARQVKEQLIKHNIGQRIFGHYVLGLSQGSVSEILARPKPWNKLTVRGKEPFHKMKLFLSDEQNILALRSIQGR | -0.082 ± 0.029
GEEMDTAEIARQVKEQLIKHNIGQRIFGHYVLGLSQGSVSEILARPKPWNKLTVRGKEPFHKMKQFLSDEQNILALRDIQGR | 0.097 ± 0.039
GEEMDTAEIARQVKEQLIKHNIGQRIFGHYVLVLSQGSVSEILARPKPWNKLTVRGKEPFHKMKQFLSDEQNILALRSIQGR | -0.895 ± 0.054
GEEMDTAEIARQVKEQLIKHNIGQRIFGHYVLYLSQGSVSEILARPKPWNKLTVRGKEPFHKMKQFLSDEQNILALRSIQGR | -1.16 ± 0.35
GEEMDTAEIARQVKEQLIKHNIGQRIFGHYVLGLSQGIVSEILARPKPWNKLTVRGKEPFHKMKQFLSDEQNILALRSIQGR | -0.008 ± 0.067
GEEMDTAEIARQVKEQLIKHNIGQRIFGHYVLGLSQGCVSEILARPKPWNKLTVRGKEPFHKMKQFLSDEQNILALRSIQGR | 0.025 ± 0.04
GEEMDTAEIARQVKEQLIKHNIGQRIFGHYVLGLSQGSVSEILARPKPWNKLTVRGAEPFHKMKQFLSDEQNILALRSIQGR | -0.2 ± 0.029
GEEMDTAEIARQVKEQLIKHNIGQRIFGHYVLGLSQGSVSEILARPKPWNKLTVRGPEPFHKMKQFLSDEQNILALRSIQGR | -0.663 ± 0.07
GEEMDTAEIARQVKEQLIKHNIGQRIFGHYVLGLSQGSVSEIVARPKPWNKLTVRGKEPFHKMKQFLSDEQNILALRSIQGR | -0.769 ± 0.043
GEEMDTAEIARQVKEQLIKHNIGQRIFGHYVLGLSQGSVSEILARPKPWNKLHVRGKEPFHKMKQFLSDEQNILALRSIQGR | -0.432 ± 0.062
GEEMDTAEIARQVKEQLIKHNIGQRIFGHYVLGLSQGSVSEILARPKPWNKLSVRGKEPFHKMKQFLSDEQNILALRSIQGR | 0.049 ± 0.033
GEEMDTAEIARQVKEQLIKHNIGQRIFGHYVLGLSQGSVSEILARPKPWNKLYVRGKEPFHKMKQFLSDEQNILALRSIQGR | -0.821 ± 0.13

Variant | abundance fitness
GEEMDTAEIARQVKEQLIKHNIMQRIFGHYVLGLSQGSVSEILARPKPWNKLTVRGKEPFHKMKQFLSDEQNILALRSIQGR | -0.12 ± 0.038
GEEMDTAEIARQVKEQLIKHNIGQRIFGHYVLGLSQGSVSEILARPKPWNKLTVRGKEPFHKVKQFLSDEQNILALRSIQGR | -0.886 ± 0.051
GEEMDTAEIARQVKEQLIKHNIGQRIFGLYVLGLSQGSVSEILARPKPWNKLTVRGKEPFHKMKQFLSDEQNILALRSIQGR | -0.1 ± 0.03
GEEMDTAEIARQVKEQLIKHNIGQRIFGGYVLGLSQGSVSEILARPKPWNKLTVRGKEPFHKMKQFLSDEQNILALRSIQGR | -0.357 ± 0.026
GEEMDTAEIARQVKEQLIKHNIGQRIFGHYVLGLSQGSVSEKLARPKPWNKLTVRGKEPFHKMKQFLSDEQNILALRSIQGR | -0.747 ± 0.073
GEEMDTAEIARQVIEQLIKHNIGQRIFGHYVLGLSQGSVSEILARPKPWNKLTVRGKEPFHKMKQFLSDEQNILALRSIQGR | -0.24 ± 0.22
GEEMDTAEIARQVKEQLIKHNIGQRIFGHYVKGLSQGSVSEILARPKPWNKLTVRGKEPFHKMKQFLSDEQNILALRSIQGR | -0.986 ± 0.091
GEEMDTAEIARQVKEQLIKHNIGQRIFGHYVHGLSQGSVSEILARPKPWNKLTVRGKEPFHKMKQFLSDEQNILALRSIQGR | -0.723 ± 0.12
GEEMDTAEIARQVKEQLIKHNIGQRIFGHYVLGLSQGSVSEILARPKPWNKLTVRGKEPFAKMKQFLSDEQNILALRSIQGR | -0.07 ± 0.027
GEEMDTAEIARQVKEQLIKHNIGQRISGHYVLGLSQGSVSEILARPKPWNKLTVRGKEPFHKMKQFLSDEQNILALRSIQGR | -0.906 ± 0.079
GEEMDTAEIARQVKEQLIKHNIGQRIHGHYVLGLSQGSVSEILARPKPWNKLTVRGKEPFHKMKQFLSDEQNILALRSIQGR | -1.14 ± 0.29
AEEMDTAEIARQVKEQLIKHNIGQRIFGHYVLGLSQGSVSEILARPKPWNKLTVRGKEPFHKMKQFLSDEQNILALRSIQGR | -0.064 ± 0.036
HEEMDTAEIARQVKEQLIKHNIGQRIFGHYVLGLSQGSVSEILARPKPWNKLTVRGKEPFHKMKQFLSDEQNILALRSIQGR | -0.289 ± 0.5
EEEMDTAEIARQVKEQLIKHNIGQRIFGHYVLGLSQGSVSEILARPKPWNKLTVRGKEPFHKMKQFLSDEQNILALRSIQGR | -0.036 ± 0.036
GEEMDTAEIARQVKEQPIKHNIGQRIFGHYVLGLSQGSVSEILARPKPWNKLTVRGKEPFHKMKQFLSDEQNILALRSIQGR | -0.538 ± 0.051
GEEMDTAEIARQVKEQAIKHNIGQRIFGHYVLGLSQGSVSEILARPKPWNKLTVRGKEPFHKMKQFLSDEQNILALRSIQGR | -0.724 ± 0.044
GEEMDTAEIARQVKEQWIKHNIGQRIFGHYVLGLSQGSVSEILARPKPWNKLTVRGKEPFHKMKQFLSDEQNILALRSIQGR | -0.808 ± 0.05
GEEMDTAEIARQVKEQLIKHNIGQRIFGHYVLGLSQGSVGEILARPKPWNKLTVRGKEPFHKMKQFLSDEQNILALRSIQGR | -0.06 ± 0.021
GEEMDTAEILRQVKEQLIKHNIGQRIFGHYVLGLSQGSVSEILARPKPWNKLTVRGKEPFHKMKQFLSDEQNILALRSIQGR | -0.874 ± 0.056
GEEMDTAEIARQVKEQLCKHNIGQRIFGHYVLGLSQGSVSEILARPKPWNKLTVRGKEPFHKMKQFLSDEQNILALRSIQGR | 0.014 ± 0.045
GEEMDTAEIARQVKEQLYKHNIGQRIFGHYVLGLSQGSVSEILARPKPWNKLTVRGKEPFHKMKQFLSDEQNILALRSIQGR | 0.008 ± 0.064
